Test results as given in article PMC10417383, “DNA-Binding Activity of CAMTA3 Is Essential for Its Function: Identification of Critical Amino Acids for Its Transcriptional Activity”.

Biological target: T1, CAMTA3 CG-1 WT (Arabidopsis thaliana, UniProt Q8GSA7 1-153)
T1 sequence: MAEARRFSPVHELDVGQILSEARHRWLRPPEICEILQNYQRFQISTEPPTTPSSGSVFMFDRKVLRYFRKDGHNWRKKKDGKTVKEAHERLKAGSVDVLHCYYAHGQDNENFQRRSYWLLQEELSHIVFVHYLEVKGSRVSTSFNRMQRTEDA
Assay: EMSA; complex detected from 25 ng protein, good binding at 50 ng or more; 20 fmol probe; reduced by unlabeled PDF1.4 competitor; 1X LightShift EMSA binding buffer, 50 ng/ul poly(dI-dC), 20 fmol probe in 20 ul, +/- 4 pmol unlabeled DNA, room temperature 30 min; 5% native PAGE, 0.5X TBE; pH and salt not given
Conditions: protein: recombinant; tags: His (pET28a); label: 3'-biotin on strand 1; blunt

B1: PDF1.4 promoter probe (dsDNA)
DNA 1: CGTGAAAGTCACGCGCCAAGAACAAA
DNA 2: TTTGTTCTTGGCGCGTGACTTTCACG
binding result: binds
